In patent US20040266664:

Experiments:
Ac-ALLL-epoxide = system: T1, Ac-ALLL-epoxide
T1 sequence: XLLX

Ac-AVL-Ex = system: T2, Ac-AVL-Ex
T2 sequence: AVL

Ac-GGPFL-Ex = system: T3, Ac-GGPFL-Ex
T3 sequence: XGPFX

Ac-GPFL-Ex = system: T4, Ac-GPFL-Ex
T4 sequence: XPFX

Ac-IVL-Ex = system: T5, Ac-IVL-Ex
T5 sequence: IVL

Ac-LALL-epoxide = system: T6, Ac-LALL-epoxide
T6 sequence: XALX

Ac-LFLL-epoxide = system: T7, Ac-LFLL-epoxide
T7 sequence: XFLX

Ac-LLAL-epoxide = system: T8, Ac-LLAL-epoxide
T8 sequence: XLAX

Ac-LLFL-epoxide = system: T9, Ac-LLFL-epoxide
T9 sequence: XLFX

Ac-NorLPFL-Ex = system: T10, Ac-NorLPFL-Ex
T10 sequence: XPFX

Ac-PFL-Ex = system: T11, Ac-PFL-Ex
T11 sequence: PFL

Ac-PPFL-Ex = system: T12, Ac-PPFL-Ex
T12 sequence: XPFX

Benzoylbenzoic-PFL-Ex = system: T13, Benzoylbenzoic-PFL-Ex
T13 sequence: PFL

Eponemycin = system: T14, Eponemycin
T14 sequence: SL

Isooctanioc-PFL-Ex = system: T15, Isooctanioc-PFL-Ex
T15 sequence: PFL

[1] = system: T16, N-acetyl-piperidinecarbonyl-PFL-Ex
T16 sequence: PFL

[2] = system: T17, N-dimethylaminobenzoyl-PFL-EX
T17 sequence: PFL

Pyrazinecarbonyl-PFL-Ex = system: T18, Pyrazinecarbonyl-PFL-Ex
T18 sequence: PFL

compound 16 = system: T19, compound 16
T19 sequence: XLFX

compound 18 = system: T20, compound 18
T20 sequence: XLFX

dileucine α′,β′-epoxide = system: T21, dileucine α′,β′-epoxide
T21 sequence: LL

[3] = system: T22, monoleucine α′,β′-epoxide
T22 sequence: L

[4] = system: T23, tetraleucine α′,β′-epoxide
T23 sequence: LLLL

[5] = system: T24, tetrapeptide epoxide with P2 1-naphthyl, other side chains leucine
T24 sequence: LLXL

[6] = system: T25, tetrapeptide epoxide with P3 1-naphthyl, other side chains leucine
T25 sequence: LXLL

[7] = system: T26, tetrapeptide epoxide with P4 1-naphthyl, other side chains leucine
T26 sequence: XLLL

[8] = system: T27, tetrapeptide epoxide with P4 methylphenyl, other side chains leucine
T27 sequence: XLLL

[9] = system: T28, tetrapeptide epoxide with P4 p-benzoylphenyl, other side chains leucine
T28 sequence: XLLL

[10] = system: T29, tetrapeptide epoxide with P4 phenyl, other side chains leucine
T29 sequence: FLLL

trileucine α′,β′-epoxide = system: T30, trileucine α′,β′-epoxide
T30 sequence: LLL

Work on “purified bovine erythrocyte 20S proteasome” yielded a kobs/[I], PGPH activity (Z-LLE-AMC) (Ac-ALLL-epoxide) of 220 M⁻¹ s⁻¹, a kobs/[I], chymotrypsin-like activity (Suc-LLVY-AMC) (Ac-ALLL-epoxide) of 5300 M⁻¹ s⁻¹ and a kobs/[I], tryptic-like activity (Boc-LRR-AMC) (Ac-ALLL-epoxide) of 3.8 M⁻¹ s⁻¹. The kobs/[I], PGPH activity (Ac-AVL-Ex) was 12.7 M⁻¹ s⁻¹, the kobs/[I], chymotrypsin-like activity (Ac-AVL-Ex) was 10.8 M⁻¹ s⁻¹ and the kobs/[I], trypsin-like activity (Ac-AVL-Ex) was 1.8 M⁻¹ s⁻¹. For the same substance, the kobs/[I], PGPH activity (Ac-GGPFL-Ex) was 170 M⁻¹ s⁻¹, the kobs/[I], chymotrypsin-like activity (Ac-GGPFL-Ex) was 170 M⁻¹ s⁻¹ and the kobs/[I], trypsin-like activity (Ac-GGPFL-Ex) was 1.3 M⁻¹ s⁻¹. The kobs/[I], PGPH activity (Ac-GPFL-Ex) was 190 M⁻¹ s⁻¹, the kobs/[I], chymotrypsin-like activity (Ac-GPFL-Ex) was 5 M⁻¹ s⁻¹ and the “kobs/[I], trypsin-like activity” value (Ac-GPFL-Ex) was “NI”. It also gave a kobs/[I], PGPH activity (Ac-IVL-Ex) of 14.6 M⁻¹ s⁻¹, a kobs/[I], chymotrypsin-like activity (Ac-IVL-Ex) of 5 M⁻¹ s⁻¹ and a kobs/[I], trypsin-like activity (Ac-IVL-Ex) of 6.7 M⁻¹ s⁻¹. For the same substance, the kobs/[I], PGPH activity (Z-LLE-AMC) (Ac-LALL-epoxide) was 130 M⁻¹ s⁻¹, the kobs/[I], chymotrypsin-like activity (Suc-LLVY-AMC) (Ac-LALL-epoxide) was 1300 M⁻¹ s⁻¹ and the kobs/[I], tryptic-like activity (Boc-LRR-AMC) (Ac-LALL-epoxide) was 2 M⁻¹ s⁻¹. The “kobs/[I], PGPH activity (Z-LLE-AMC)” value (Ac-LFLL-epoxide) was “not measurable”, the kobs/[I], chymotrypsin-like activity (Suc-LLVY-AMC) (Ac-LFLL-epoxide) was 8500 M⁻¹ s⁻¹ and the “kobs/[I], tryptic-like activity (Boc-LRR-AMC)” value (“kobs/[I], tryptic-like activity” below) (Ac-LFLL-epoxide) was “not measurable”. The kobs/[I], PGPH activity (Z-LLE-AMC) (Ac-LLAL-epoxide) was 20 M⁻¹ s⁻¹, the kobs/[I], chymotrypsin-like activity (Suc-LLVY-AMC) (Ac-LLAL-epoxide) was 16000 M⁻¹ s⁻¹ and the kobs/[I], tryptic-like activity (Boc-LRR-AMC) (Ac-LLAL-epoxide) was 4.1 M⁻¹ s⁻¹. For the same substance, the “kobs/[I], PGPH activity (Z-LLE-AMC)” value (Ac-LLFL-epoxide) was “not measurable”, the kobs/[I], chymotrypsin-like activity (Suc-LLVY-AMC) (Ac-LLFL-epoxide) was 54000 M⁻¹ s⁻¹ and the “kobs/[I], tryptic-like activity” value (Ac-LLFL-epoxide) was “not measurable”. For the same substance, the kobs/[I], PGPH activity (Ac-NorLPFL-Ex) was 115 M⁻¹ s⁻¹, the kobs/[I], chymotrypsin-like activity (Ac-NorLPFL-Ex) was 1.9 M⁻¹ s⁻¹ and the “kobs/[I], trypsin-like activity” value (Ac-NorLPFL-Ex) was “NI”. The kobs/[I], PGPH activity (Ac-PFL-Ex) was 32 M⁻¹ s⁻¹, the kobs/[I], chymotrypsin-like activity (Ac-PFL-Ex) was 42 M⁻¹ s⁻¹ and the “kobs/[I], trypsin-like activity” value (Ac-PFL-Ex) was “NI”. The kobs/[I], PGPH activity (Ac-PPFL-Ex) was 10.6 M⁻¹ s⁻¹, the kobs/[I], chymotrypsin-like activity (Ac-PPFL-Ex) was 6.4 M⁻¹ s⁻¹ and the “kobs/[I], trypsin-like activity” value (Ac-PPFL-Ex) was “NI”. For the same substance, the kobs/[I], PGPH activity (Benzoylbenzoic-PFL-Ex) was 140 M⁻¹ s⁻¹, the kobs/[I], chymotrypsin-like activity (Benzoylbenzoic-PFL-Ex) was 8.7 M⁻¹ s⁻¹ and the “kobs/[I], trypsin-like activity” value (Benzoylbenzoic-PFL-Ex) was “NI”. The kobs/[I], PGPH activity (Eponemycin) was 175 M⁻¹ s⁻¹, the kobs/[I], chymotrypsin-like activity (Eponemycin) was 58 M⁻¹ s⁻¹ and the kobs/[I], trypsin-like activity (Eponemycin) was 17 M⁻¹ s⁻¹. The kobs/[I], PGPH activity (Isooctanioc-PFL-Ex) was 194 M⁻¹ s⁻¹, the kobs/[I], chymotrypsin-like activity (Isooctanioc-PFL-Ex) was 190 M⁻¹ s⁻¹ and the “kobs/[I], trypsin-like activity” value (Isooctanioc-PFL-Ex) was “NI”. For the same substance, the kobs/[I], PGPH activity [1] was 45.3 M⁻¹ s⁻¹, the kobs/[I], chymotrypsin-like activity [1] was 31.2 M⁻¹ s⁻¹ and the “kobs/[I], trypsin-like activity” value [1] was “NI”. For the same substance, the kobs/[I], PGPH activity [2] was 150 M⁻¹ s⁻¹, the kobs/[I], chymotrypsin-like activity [2] was 220 M⁻¹ s⁻¹ and the “kobs/[I], trypsin-like activity” value [2] was “NI”. It also gave a kassoc = kobs/[I], PGPH activity (NLVS) of 6.4 M⁻¹ s⁻¹, a kassoc = kobs/[I], chymotrypsin-like activity (NLVS) of 6790 M⁻¹ s⁻¹ and a kassoc = kobs/[I], trypsin-like activity (NLVS) of 5.3 M⁻¹ s⁻¹. The kobs/[I], PGPH activity (Pyrazinecarbonyl-PFL-Ex) was 23 M⁻¹ s⁻¹, the kobs/[I], chymotrypsin-like activity (Pyrazinecarbonyl-PFL-Ex) was 520 M⁻¹ s⁻¹ and the kobs/[I], trypsin-like activity (Pyrazinecarbonyl-PFL-Ex) was 3.7 M⁻¹ s⁻¹. For the same substance, the “kassoc = kobs/[I], PGPH activity” value (compound 16) was 21 (80-150 µM), the “kassoc = kobs/[I], trypsin-like activity” value (compound 16) was 7.1 (80-130 µM) and the kobs/[I], chymotryptic-like activity (Suc-LLVY-AMC) (compound 16) was 183000 M⁻¹ s⁻¹. For the same substance, the “kassoc = kobs/[I], PGPH activity” value (compound 18) was 11 (10-150 µM), the “kassoc = kobs/[I], chymotrypsin-like activity” value (compound 18) was 5200 (0.11 µM) and the “kassoc = kobs/[I], trypsin-like activity” value (compound 18) was 580 (0.5-5 µM). For the same substance, the “kobs/[I], PGPH activity” value (dileucine α′,β′-epoxide) was “†”, the “kobs/[I], chymotrypsin-like activity” value (dileucine α′,β′-epoxide) was 3.1 (100-160 µM) and the “kobs/[I], trypsin-like activity” value (dileucine α′,β′-epoxide) was “†”. For the same substance, the “kobs/[I], PGPH activity” value [3] was “†”, the “kobs/[I], chymotrypsin-like activity” value [3] was “†” and the “kobs/[I], trypsin-like activity” value [3] was “†”. For the same substance, the “kobs/[I], PGPH activity” value [4] was 9.2 (100-160 µM), the “kobs/[I], chymotrypsin-like activity” value [4] was 14,000 (50-150 nm) and the “kobs/[I], trypsin-like activity” value [4] was “†”. The “kobs/[I], PGPH activity (Z-LLE-AMC)” value [5] was “not measurable”, the kobs/[I], chymotryptic-like activity (Suc-LLVY-AMC) [5] was 29000 M⁻¹ s⁻¹ and the “kobs/[I], tryptic-like activity” value [5] was “not measurable”. For the same substance, the “kobs/[I], PGPH activity (Z-LLE-AMC)” value [6] was “not measurable”, the kobs/[I], chymotryptic-like activity (Suc-LLVY-AMC) [6] was 31000 M⁻¹ s⁻¹ and the “kobs/[I], tryptic-like activity” value [6] was “not measurable”. The “kobs/[I], PGPH activity (Z-LLE-AMC)” value [7] was “not measurable”, the kobs/[I], chymotryptic-like activity (Suc-LLVY-AMC) [7] was 29000 M⁻¹ s⁻¹ and the “kobs/[I], tryptic-like activity” value [7] was “not measurable”. For the same substance, the kobs/[I], PGPH activity (Z-LLE-AMC) [8] was 50 M⁻¹ s⁻¹, the kobs/[I], chymotryptic-like activity (Suc-LLVY-AMC) [8] was 63000 M⁻¹ s⁻¹ and the kobs/[I], tryptic-like activity (Boc-LRR-AMC) [8] was 5.4 M⁻¹ s⁻¹. For the same substance, the “kobs/[I], PGPH activity (Z-LLE-AMC)” value [9] was “not measurable”, the kobs/[I], chymotryptic-like activity (Suc-LLVY-AMC) [9] was 23000 M⁻¹ s⁻¹ and the “kobs/[I], tryptic-like activity” value [9] was “not measurable”. The kobs/[I], PGPH activity (Z-LLE-AMC) [10] was 78 M⁻¹ s⁻¹, the kobs/[I], chymotryptic-like activity (Suc-LLVY-AMC) [10] was 37000 M⁻¹ s⁻¹ and the kobs/[I], tryptic-like activity (Boc-LRR-AMC) [10] was 5.5 M⁻¹ s⁻¹. For the same substance, the “kobs/[I], PGPH activity” value (trileucine α′,β′-epoxide) was 120 (8-12 µM), the “kobs/[I], chymotrypsin-like activity” value (trileucine α′,β′-epoxide) was 780 (1-2.5 µM) and the kobs/[I], trypsin-like activity (trileucine α′,β′-epoxide) was 5.1 M⁻¹ s⁻¹.
